Assay results reported in patent US20190092832A1 (published 2019).

Target: T1, interferon-alpha/beta receptor alpha chain (IFNAR1) (UniProt P17181 28-436, limits assumed)
T1 sequence (looked up): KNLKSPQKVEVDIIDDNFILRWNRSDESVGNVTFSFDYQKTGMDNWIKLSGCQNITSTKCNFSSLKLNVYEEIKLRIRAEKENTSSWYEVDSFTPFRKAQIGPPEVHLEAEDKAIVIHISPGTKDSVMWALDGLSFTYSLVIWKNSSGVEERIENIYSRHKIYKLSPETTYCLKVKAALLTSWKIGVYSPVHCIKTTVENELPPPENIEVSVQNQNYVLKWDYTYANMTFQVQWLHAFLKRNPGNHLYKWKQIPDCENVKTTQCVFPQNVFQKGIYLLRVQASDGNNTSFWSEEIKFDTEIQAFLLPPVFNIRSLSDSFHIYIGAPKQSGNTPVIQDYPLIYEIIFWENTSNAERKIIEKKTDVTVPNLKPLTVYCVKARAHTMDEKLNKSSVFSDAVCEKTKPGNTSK
Experiment: intrinsic fluorescence quenching of IFNAR1 titrated with peptide, double-log plot, 298 K
Method: […] Protein intrinsic fluorescence experiments were carried out at constant IFNAR1 concentration titrated with different concentrations of IFNβ analog peptide to reach a maximum molar ratio of the IFNβ analog peptide-IFNAR1, and the complex maximum molar ratio of the IFNβ analog peptide-IFNAR1 was 10.
In these experiments, 1.0 ml solution with a fixed concentration of the […] was precisely added into the quartz cell with a 1 cm path length and was manually titrated by successive additions of the IFNβ analog peptide at 5 min time intervals. The fluorescence emission spectra were then measured, and the maximum fluorescence intensity at a wavelength of about 340 nm was used to calculate the binding constant parameters.
Fluorescence quenching data from the interaction of the IFNβ analog peptide and IFNAR1 were analyzed to obtain various binding parameters. The binding constant (Kₐ) and the number of binding (n) were calculated according to the Eq. 1, where F₀ is the fluorescence emission intensities of IFNAR1 in the absence of the IFNβ analog peptide, F is the fluorescence emission intensities of IFNAR1 in the presence of the IFNβ analog peptide, [P] is the IFNβ analog peptide concentration, Kₐ is the binding constant, and n is the apparent molar ratio of [IFNβ analog peptide]/[IFNAR1] complex.

- Ka: 3.67e+07 M⁻¹
Binder: MLQNGRDVRKRGFSDTGLRKLGRVNLL (also called MSPEP27) [IFNβ analog peptide with SEQ ID No. 2]
